Experimental findings from patent publication US20220144895A1, “DE NOVO DESIGN OF TUNABLE PH-DRIVEN CONFORMATIONAL SWITCHES” (University of Washington, priority 2019, published 2022) are described below.

Data set [1] in a line: Cryo-electron microscopy and tomography of proteins with DOPC liposomes. The conditions noted are these: gold-nanoparticle conjugates; for membrane deformation and disruption by cryo-EM: pH 5. The method, then: The conjugation reactions were performed immediately prior to use for electron microscopy imaging. […] The grids were prepared using a Vitrobot Mark IV (FEI) at 4 C and 100% humidity before being plunge-frozen in ethane cooled with liquid nitrogen.
Electron micrographs were collected using a Tecnai G2 Spirit™ Transmission Electron Microscope (FEI) operated at 120 kV and equipped with a 4k×4k Gatan Ultrascan CCD camera at a nominal magnification of 26,000× or a Tecnai TF-20 Transmission Electron Microscope (FEI) operated at 200 kV equipped with a K2 Summit Direct Electron Detector (Gatan).
Projection micrographs collected on the TF-20 were captured with the detector operating in counting mode. Specimens were imaged at 14,500 magnification, giving a pixel size of 0.254 nm, with a dose of ˜18e−/Å^2 across 75 200 ms movie frames. Data were collected in a semi-automated fashion using Leginon™ (49) and micrograph movie frames were aligned using MotionCor2™ (50). Leginon™ was used to collect tomography tilt series from −48 to +48 degrees bidirectionally in 3 degree increments with a total accumulated dose of ˜100 e−/Å^2. Reconstructions were processed using etomo in the IMOD™ software suite (31) with CTF parameters estimated from CTFFIND4™ (52). Reconstructed tomograms were visualized and measurements were made using ImageJ™ (53).

Data set [2] is described as follows: Size-exclusion chromatography (SEC). Format: physicochemical. The settings on record: Superdex 75, Na2PO4-Citrate buffer pH 4. On the procedure: Cells were lysed by microfluidization in the presence of 1 mM PMSF. Lysates were clarified by centrifugation at 24,000 ref at 4° C. for at least 30 minutes. Proteins were purified by Immobilized metal affinity chromatography (IMAC): supernatant was applied to Ni-NTA (Qiagen) columns pre-equilibrated in lysis buffer. The column was washed twice with 15 column volumes (CV) of wash buffer (25 mM Tris pH 8.0 at room temperature, 300 mM NaCl, 40 mM Imidazole), followed by 3-5 CV of high-salt wash buffer (25 mM Tris pH 8.0 at room temperature, 1 M NaCl, 40 mM Imidazole) then an additional 15 CV of wash buffer. Protein was eluted with 250 mM Imidazole, and buffer-exchanged into 25 mM Tris pH 8.0 and 150 mM NaCl without imidazole for cleavage of the N-terminal hexahistidine tag by purified hexahistidine-tagged TEV protease (with the exception of design pRO-1, which was cleaved using restriction grade thrombin (EMD Millipore 69671-3) at room temperature for 4 hours or overnight, using a 1:3000 dilution of enzyme into sample solution). A second Ni-NTA step was used to remove hexahistidine tag, uncleaved sample and the hexahistidine-tagged TEV protease, and the cleaved proteins were then […], 150 mM NaCl, and 2% glycerol.
For orientation: In gel filtration, larger molecules generally elute earlier.

Data set [3] relates to U2-OS cells. Kind of data set: Lysosomal pH with LysoSensor Yellow/Blue DND-160. The settings on record: 5 μM protein, 1 hr, LysoSensor yellow/blue ratio. Format: cell-based. The method, then:
The final concentration of 5 μM+36GFP fusion proteins was incubated with the LAMP1-HaloTag™ expressing U-2 OS cells on a pre-coated coverslip for 1 hr. Cells were fixed with 4% paraformaldehyde for 20 min at room temperature (RT) and quenched/rinsed with PBS supplemented with 30 mM glycine. Then, the coverslips were mounted on FluoroSave™ (Millipore). For pH measurement of the lysosome, LysoSensor™ Yellow/Blue DND-160 was incubated at 1 mg/mL overnight and washed twice prior to imaging (54). The final concentration of 5 μM protein was incubated with the LAMP1-HaloTag expressing U2-OS cells that were loaded with 1 mg/mL LysoSensor™ Yellow/Blue DND-160 for 1 hr. In separate chambers, LysoSensor™ Yellow/Blue DND-160 loaded cells were incubated with bafilomycin A1 (1 μM) and chloroquine (50 μM) for 1 hr as a control. For live cell confocal microscopy, Zeiss 880 was used to collect LysoSensor™ Yellow/Blue signal. LysoSensor™ Yellow/Blue was excited with a 405 nm laser, and its emission was collected into the two regions (Blue=410-499 nm Yellow=500-600 nm) using a Plan-Apochromat 63×/1.4 oil DIC objective. The ratio of the two channels was calculated using the home-built software in Matlab™.

Changes are numbered by the printed parent chain. Names and notes keep the numbering of the source. “Also recorded” adds a separate entry of the source.

B1: pRO-2: designed pH-responsive homotrimer, SEQ ID NO: 1-2 (protein)
chain 1: MGSHHHHHHGSGSENLYFQGSEYEIRKALEELKAATAELKRATASLRAITEELKKNPSEDALVEHNRAIVEHNAIIVEHNRIIAAVLELIVRAIK
chain 2: SEYEIRKALEELKAATAELKRATASLRAITEELKKNPSEDALVEHNRAIVEHNAIIVEHNRIIAAVLELIVRAIK
For the molecule B1, the “membrane deformation and disruption by cryo-EM” value in data set [1] was “widespread membrane deformation and disruption of the lipid bilayer”. Besides, the “state by SEC at pH 4” value in data set [2] was “soluble aggregate”.

B2: pRO-2 I56V: pRO-2 mutant, SEQ ID NO: 17-18 (protein)
chain 1: B1 chain 1 with I76V
chain 2: GSEYEIRKALEELKAATAELKRATASLRAITEELKKNPSEDALVEHNRAIVEHNAIVVEHNRIIAAVLELIVRAIK
Regarding B2, the results for the “change of lysosomal pH” value in data set [3] and in data set [3] (listed as pRO-256V) were “larger changes in lysosomal pH than two drugs; also recorded: increases the lysosomal pH more than the small molecule drugs” and “raises the lysosomal pH”, respectively. Also, the “membrane deformation and disruption by cryo-EM” value in data set [1] is “widespread membrane deformation and disruption of the lipid bilayer”. In data set [1] (pH 5 and pH 8), the “interaction with liposomes by cryo-EM” value was “directly interacts with liposomes at pH 5 but not at pH 8; also recorded: interacts directly with liposomes at pH 5 but not pH 8”.
